Data from publication PMC10113190 (2023).

B1: Rh5_(proc), processed form of PfRh5 lacking the N-terminal domain (residues 145-526) (domain or fragment)
chain: LQYHFKELSNYNIANSIDILQEKEGHLDFVIIPHYTFLDYYKHLSYNSIYHKSSTYGKCIAVDAFIKKINEAYDKVKSKCNDIKNDLIATIKKLEHPYDINNKNDDSYRYDISEEIDDKSEETDDETEEVEDSIQDTDSNHAPSNKKKNDLMNRAFKKMMDEYNTKKKKLIKCIKNHENDFNKICMDMKNYGTNLFEQLSCYNNNFCNTNGIRYHYDEYIHKLILSVKSKNLNKDLSDMTNILQQSELLLTNLNKKMGSYIYIDTIKFIHKEMKHIFNRIEYHTKIINDKTKIIQDKIKLNIWRTFQKDELLKRILDMSNEYSLFITSDHLRQMLYNTFYSKEKHLNNIFHHLIYVLQMKFNDVPIKMEYFQTYKKNKPLTQ
B2: Rh5_(unproc), full-length PfRh5 (residues 26 to 526) (natural protein)
chain: ENAIKKTKNQENNLTLLPIKSTEEEKDDIKNGKDIKKEIDNDKENIKTNNAKDHSTYIKSYLNTNVNDGLKYLFIPSHNSFIKKYSVFNQINDGMLLNEKNDVKNNEDYKNVDYKNVNFLQYHFKELSNYNIANSIDILQEKEGHLDFVIIPHYTFLDYYKHLSYNSIYHKSSTYGKCIAVDAFIKKINEAYDKVKSKCNDIKNDLIATIKKLEHPYDINNKNDDSYRYDISEEIDDKSEETDDETEEVEDSIQDTDSNHAPSNKKKNDLMNRAFKKMMDEYNTKKKKLIKCIKNHENDFNKICMDMKNYGTNLFEQLSCYNNNFCNTNGIRYHYDEYIHKLILSVKSKNLNKDLSDMTNILQQSELLLTNLNKKMGSYIYIDTIKFIHKEMKHIFNRIEYHTKIINDKTKIIQDKIKLNIWRTFQKDELLKRILDMSNEYSLFITSDHLRQMLYNTFYSKEKHLNNIFHHLIYVLQMKFNDVPIKMEYFQTYKKNKPLTQ

Target: Biotinylated CyRPA (residues 29 to 362) with a C-terminal Avitag (P. falciparum, UniProt Q8IFM8 29-362, biotin (on the Avitag))
Assay: BLI

Row | Binder | Kd [nM]
1 | B1 | 179
2 | B2 | 127
